Reference: paper PMC3091956

Biological target: T1, 6xHis-Stg (N-terminally histidine-tagged full-length mouse stargazin) (mouse), O88602
T1 chain: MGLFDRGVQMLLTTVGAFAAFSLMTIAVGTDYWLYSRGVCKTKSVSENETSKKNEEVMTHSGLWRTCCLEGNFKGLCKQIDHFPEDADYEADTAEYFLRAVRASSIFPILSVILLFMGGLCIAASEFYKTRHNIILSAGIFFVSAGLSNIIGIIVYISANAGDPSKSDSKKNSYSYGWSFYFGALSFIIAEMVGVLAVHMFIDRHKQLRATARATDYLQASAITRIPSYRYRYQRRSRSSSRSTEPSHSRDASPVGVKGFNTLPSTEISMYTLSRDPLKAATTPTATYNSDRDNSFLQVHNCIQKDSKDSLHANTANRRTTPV
Experiment: electron crystallography of 2D crystals
Settings: remark: other sources report otherwise

stoichiometry N: 2
B1: 6xHis-Stg (N-terminally histidine-tagged full-length mouse stargazin), O88602 1-323 (natural protein)
chain: T1 chain
